This is an account of results in the DeepSol protein solubility set.

The nature of this series: soluble on expression in E. coli; label from the status in PepcDB or PDB records.
With “MKIIIIGGVAGGATTAARIRRTNEAAEIILLEKGKYISYANCGLPYYIGGVIKEREKLFVQTPEAFSTRFRVDVRTENEVIFIDRKRKTVTVRQSSGDTYEESYDKLLISTGASPVRPPLPGIDLNGIFTLRNVADTDRIKEYINSHAPRKAVVIGAGFIGLEMAENLHAQGAKVSIVEMGNQVMAPIDFSMASLVHQHLMDKGVNLYLEQAVASFERDGKGLKVIFKNGQSISADIVILSIGVRPETTLARAAELKIGEAGGIAVNDYLQTSDESIYAIGDAIEFRHPITGKPWLNYLAGPANRQGRIVADNIQGAHIPYEGAIGTSIAKVFDMTVASTGLPGKRLRQAEINYMSSTIHPSSHAGYYPDAMPMSIKITFDPKTGKLYGGQIVGYDGVDKRIDEIALVIKHEGTIYDLMKVEQAYAPPFSSAKDPVAVAGYVAENIITGKVQPVYWRQLRDIEMENNFLLDVRTPDEFSLNTLPGAVNIPLDELRDRLDELPKDKMIYTFCAVGLRGYLAYRILVQHGFEKVRNLSGGLKTYHAAAAPIILREESENEVPAQPNANIQQPADAQPQKTVSPVEAVKTIRVDACGLQCPGPILKMKKTMDSLVSGDRVEITSTDPGFPRDAAAWCNSTGNQLISKETAGGKSVVVIEKGEPKSCNIVTSCEGKGKTFIMFSDDLDKALATFVLANGAAATGQKVTIFFTFWGLNVIKKLHKPNVEKDIFGKMFGMMLPSSSRKLKLSKMSMGGIGGKMMRYIMNRKGIDSLESLRQQALENGVEFIACQMSMDVMGVKQEELLDEVTIGGVATYMERADNANINLFILEHHHHHH”, the “soluble on expression in E. coli” value is “not soluble”. On to “MTENVVCTGAVNAVKEVWEKRIKKLNEDLKREKEFQHKLVRIWEERVSLTKLREKVTREDGRVILKIEKEEWKTLPSSLLKLNQLQEWQLHRTGLLKIPEFIGRFQNLIVLDLSRNTISEIPPGIGLLTRLQELILSYNKIKTVPKELSNCASLEKLELAVNRDICDLPQELSNLLKLTHLDLSMNDFTTIPLAVLNMPALEWLDMGSNKLEQLPDTIERMQNLHTLWLQRNEITCLPQTISNMKNLGTLVLSNNKLQDIPVCMEEMANLRFVNFRDNPLKLKVSLPPSEGTDEEEERELFGLQFMHTYIQESRRRADHQVNGSTTLPISINTDG”, for which the “soluble on expression in E. coli” value is on record as “soluble”. For the sequence “MCSISRGKLSTVLKSTSSCIFENLAYEEHIFRTHNVAQNGEILLMWSNRPAVVIGRHQNPWIEVNIPYANKNNIQIVRRHSGGGTVYHDLGNLNISLLTTHAQHCRPKNLKFISDALNQQFSVKIVPNKRDDMELHPGERKCSGTAARIARGQAYHHLTLLVGADLQVLSKSLKSPWRDKIESNATRSVRAPAVGFLKQDDANANVEQSKLAIVEAYRKLFEESHIKTVNVAEEVKKNAEISKIFDELKAWKWIYGKSPKFQYSRENKSIIEMMRTAHKDREPWRDIRRMSKWQGVRVCDEPSPWYMSIPTPFSQFHNVLPEEQEEMVFTELKLFLVGNQTENIRIDEYDKHDLPISILANISFDPFIRSELERFHDILVTVATIKICCYAITHDSVTFSSISSAVASTIEKKVNGFITKICTKLSGSTEANQQMNQLLREMHTIHESLNFYNGIVKSIYLDQLIGGQVLSLLDSKRRHVFSGNVVQNLDDVFQAGWKVFARSIGRLVCKFEADHMDYEFVIWSTKQMTDSQCKTLVPSNPSRQIKSSRYVVIESLCPDFFKKYLDILVRCAEFGDSAKSDSSLRRSTSKKINESESVESVMEDVRNVDWSNLDVATTVRMLVQFSRKESACLLREITSATNVDQAIRDIHDLLIKGSCAHDVMLFGLKADILQKPIDEVGNIRMKKLTNDVLGAAAEKHHPFWKYFSFVIDKQNVFEMLGQRTSLGGNADNLRDNVTPMLFECISVKMDCPIEIEPIISMKAVFILTPVFRIWIQLHVASYTIANYRDSIRGQMPSRSLGDIAMKKHLMHALDAEISSIKQKWVGYVDLLINLYYERIQKAASLDEYTECQDILASDVTNMMGISELSQLENIKDILNIIWNYDNADSNLADLIADFEEVQSRARMDVVVA”, the “soluble on expression in E. coli” value is listed as “not soluble”.

For “MLSSTCTAAVRGLSTTAQLSKINNVTIIGAGLMGSGIAQVSANAKLNVTVVDSNQSALEKAQQGIANSLKRVAKKKHADDAAAQTALVSSVLDRIKMSTNVSDSVKDADLVIEAIVENIDIKRKLFAEVEVAAKPTTLITTNTSSLRLADIGLNLKDKSRFGGLHFFNPVPMMKLLEVVRHTETSDATFNQLVDYGKTVGKTTVACKDTPGFIVNRLLVPYMFEALRLYERGDASMEDIDVAMKLGAGYPMGPFELSDYVGLDTCKFIMDGWHAQYPEEVAFTPSPLLNSLVDSGKNGRKSGEGFYKYK”, the “soluble on expression in E. coli” value is “not soluble”. To “MGSDKIHHHHHHMLHRTCIQFHKFGNPKDVLQVEYKNIEPLKENEVLVRMLVRPINPSDLIPITGAYAHRIPLPNIPGYEGVGIVEDVGAFVSRDLIGKRVLPLRGEGTWQEYVKTSPDFVVPIPDSINDFTAAQMYINPLTAWVTCTETLNLQRNDVLLVNACGSAIGHLFAQLSQILNFRLIAVTRNNKHTEELLRLGAAYVIDTSTAPLYETVMTLTNGIGADAAIDSIGGPDGNELAFSLRPNGHFLTIGLLSGVQVNWAEIVTKAKVHANIFHLRHWNKEASSYKWQETFRHLIRLVENEQLRFMKVHSTYDLADVKAAVDVVQSAEKTKG” belongs “not soluble”; to “MGSDKIHHHHHHMKIGDKVRFLSEVGGGIVTGFKGKDFVLVEDADGFDIPMPIRECVVIEADDYNIKRKPAATAPKQEEPAKPAKPEMPVIQRQPEVRGGDTLNVFLAYVPEDAKAMMTTPFEAYLVNDSNYYLYYTYLSAEGKAWNNRSHGLVEPNTKLLLEEFTKDVLNEMERVAVQLIAFKDGKPAAIKPAVSVELRIDTVKFYKLHTFSASDFFEEPALIYDIVKDDVPAKQVYVSAEEIQSALLQKKFVDKPKSQPIMKPNHGQSGKNGIIEVDLHIDSLLDDTHGMSNSEILNYQLDKFREVIEANKEKREQKVVFIHGKGDGVLRKAIIDELKRKHSNYRYQDASFQEYGFGATMVTIK”, “not soluble”. With “MKVAVLPGDGIGPEVTEAALKVLRALDEAEGLGLAYEVFPFGGAAIDAFGEPFPEPTRKGVEEAEAVLLGSVGGPKWDGLPRKIRPETGLLSLRKSQDLFANLRPAKVFPGLERLSPLKEEIARGVDVLIVRELTGGIYFGEPRGMSEAEAWNTERYSKPEVERVARVAFEAARKRRKHVVSVDKANVLEVGEFWRKTVEEVGRGYPDVALEHQYVDAMAMHLVRSPARFDVVVTGNIFGDILSDLASVLPGSLGLLPSASLGRGTPVFEPVHGSAPDIAGKGIANPTAAILSAAMMLEHAFGLVELARKVEDAVAKALLETPPPDLGGSAGTEAFTATVLRHLA”, the “soluble on expression in E. coli” value was “soluble”. Take “MARVRFENKRVNMSKLSQFGFEPNQNGQYQFRILIMQGQFEMIIELNTDGSLNTTLTDTTTSEVYVLHLTSQAHGQFVGQVAQAYQDVLYNIEQHCYDNDVFQSTPERKLIAQVKAAYGDDLEFLWPKFPQNAVWRRSDTHKWYGALLTVTSDKLALPGATHVVTVLDLRARPEDLSMLIDGQHYLPGYHMNKKHWYSILLDDVVPLATIMDDVKVSYMLAKLEHHHHHH”: the “soluble on expression in E. coli” value is given as “not soluble”. As to “MAHHHHHHMMAAPGTSQLDSLKATARKGFYTGLSSGLMRQLIYATARLGFYPSFRDGILEGEVALGLKRSADPAGATALDRALAGASAGVFASFLSSPVEVCLVLQTTSKGKERLSMLQACNSVLKSRGVTGLWSGFGALASRAALVGVSQVAVHDQVLTMLRKRNVKRADPLGDNVVVNIASVITALFYSIVTMPVEVARVRMSAEAKLSAGAERRYHNVVQCIGRIFKEEGLLAMYDSYLPYFSRCASQTVICFFVIEYLTRELRERQKAKTNLIK”, the “soluble on expression in E. coli” value is “soluble”. For “MHGEETPRTDLTLFSEKMQELKSRIASVIVGQERTVDLVLTAILANGHVLIEGVPGVAKTLLARLTARLIDADFSRVQFTPDLMPSDVLGTTVFNMKTNEFDFHRGPVFANIILVDEINRAPAKTQSALFEVMEERQASIDGTTYRMGELYTILATQNPVEQEGTYKLPEAQLDRFLMKITMDYPSLDEEINILERHHTNAALVKLEEIQPVITREELLSLRRLTEKVFVDRTLLQYIALIAQQTRTSKAVYLGASPRASVAMLQASKAYALLQGRDFVTPEDIKFVAPYVLQHRLILTAEAEMEGYSPVKVTQRLIDKVEVPKLEHHHHHH”, the “soluble on expression in E. coli” value is “soluble”.

With “MALNDNPIPKSVPLHPKSGKYFHNLHARDLSNIYQQCYKQIDETINQLVDSTSPSTIGIEEQVADITSTYKLLSTYESESNSFDEHIKDLKKNFKQSSDACPQIDLSTWDKYRTGELTAPKLSELYLNMPTPEPATMVNNTDTLKILKVLPYIWNDPTCVIPDLQNPADEDDLQIEGGKIELTCPITCKPYEAPLISRKCNHVFDRDGIQNYLQGYTTRDCPQAACSQVVSMRDFVRDPIMELRCKIAKMKESQEQDKRSSQAIDVL”, the “soluble on expression in E. coli” value was “soluble”.

Regarding “GPGSMGVDLTGISKKSRVIRHHTYSTNPYIKLLIKLYKFLAKRTSSGFNKVVYQRLIKSRSNRAPISLSRIAVVMKRKAVFTAKSKAAPIAVVVGDVLDDVRMARIPAMRVCALRFSKSARQSIVAAGGECLTFDQLAMIAPTGKNTYLLRGRKSGRESVRHFGASGVPGSHSKPYATNRGKETKRGRRTGRSYKRKAFRHV”, the “soluble on expression in E. coli” value was “soluble”.

Regarding “MSELRALIREILVEELAALRAAPAATPACEMVDVHSDEALMAFARDLLGRANDPEFVRCVQSGQHRFTLAPTVAQPPGQRPAPAASFTLVASAPAEAPRFEKALVTERDVAAIPRDQSRIRLARNTRLTPLASDELRRRGIRIERTQK”, the “soluble on expression in E. coli” value is “not soluble”. The result for “SNPLCSRCNRVVYPTEKVNCLDKYWHKGCFSCEVCKMTLNMKNYKGFEKRPYCNAHYPKTSFTSVADTPENLRLKQQSKMQSQVLYKEEFEKNKGKGFSVVADTPELQRIKKTQDQISNIKYHEDFEKSRSGGDTPLPLTPQLNTPPAYPSSAASQNYHYEPEPVRPAAAAPPPSSGKRYRAVYDYTAADEDEVSFMDGDMIVDVQQIDEGWMYGRVERTGQQGMLPANYVEAM” reads “soluble”; that for “GSGSAMIEARQVSELSTRIISSVQMLSNAQNEQERKEAGRVLFEQLESLLTHIKELGGESFDSKLLDALESNVQNVINNLAELGVTVERKLWLAKEIDTRVEEMRLLSEELEQLTRTQVQNTSTIAVANVTHIYDLLEANKKDQVYQALDALVEVDLDLTERLHELHLLAFKMLNQIEEARTLTNVDRIQQIQTAFENNLKIMKRRVLAVEDPTRSKQMSQLLTELGKRQVVFTILLQQYENNEQSQQLMQKTLELFSELNSTVNKLVDDSNKTTT”, “soluble”; that for “MSLEAVIFDMDGVLMDTEPLYFEAYRRVAESYGKPYTEDLHRRIMGVPEREGLPILMEALEIKDSLENFKKRVHEEKKRVFSELLKENPGVREALEFVKSKRIKLALATSTPQREALERLRRLDLEKYFDVMVFGDQVKNGKPDPEIYLLVLERLNVVPEKVVVFEDSKSGVEAAKSAGIERIYGVVHSLNDGKALLEAGAVALVKPEEILNVLKEVLEGHHHHHH”, “soluble”.

With “MFQQLSARLQEAIGRLRGRGRITEEDLKATLREIRRALMDADVNLEVTRDFVERVREEALGKQVLESLTPAEVILATVYEALKEALGGEARLPVLKDRNLWFLVGLQGSGKTTTAAKLALYYKGKGRRPLLVAADTQRPAAREQLRLLGEKVGVPVLEVMDGESPESIRRRVEEKARLEARDLILVDTAGRLQIDEPLMGELARLKEVLGPDEVLLVLDAMTGQEALSVARAFDEKVGVTGLVLTKLDGDARGGAALSARHVTGKPIYFAGVSEKPEGLEPFYPERLAGRILGMGDVASLAEKVRAAGLEAEAPKSAKELSLEDFLKQMQNLKRLGPFSEILGLLPGVPQGLKVDEKAIKRLEAIVLSMTPEERKDPRILNGSRRKRIAKGSGTSVQEVNRFIKAFEEMKALMKSLEKKKGRGLM”, the “soluble on expression in E. coli” value was “soluble”.
